Reference: US7056679

Assays:
DGI-2 polypeptide [1] = target: DGI-2 polypeptide (UniProt Q15004); assay: phage ELISA
DGI-2 polypeptide [2] = target: DGI-2 polypeptide (UniProt Q15004); assay: phage ELISA, 405 nm; DGI-2 signal over LDH signal
[3] = target: lactate dehydrogenase (LDH); assay: phage ELISA, 405 nm; LDH coated
[4] = target: antibody raised against ETAG; assay: phage ELISA, 405 nm; anti-E-tag antibody coated
DGI-2 polypeptide [5] = target: DGI-2 polypeptide (UniProt Q15004); assay: phage ELISA, 405 nm; DGI-2 coated
[6] = target: lactate dehydrogenase (LDH); assay: phage ELISA; LDH coated

DGI-2 polypeptide, sequence (Q15004 whole entry): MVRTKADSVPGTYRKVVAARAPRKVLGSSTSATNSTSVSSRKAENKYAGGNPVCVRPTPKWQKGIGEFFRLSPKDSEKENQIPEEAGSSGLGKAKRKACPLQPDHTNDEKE

Binder | DGI-2/LDH (OD) (DGI-2 polypeptide [2]) | LDH (OD) [3] | ETAG (OD) [4] | DGI-2 (OD) (DGI-2 polypeptide [5]) | further results
GRAGTSMTELVAWGFVQRVGAAAGAPVPYPDPLEPRP [DGI-2-20F-PP-H10] |  |  |  |  | DGI-2 (OD) (DGI-2 polypeptide [1]): 1.4 OD; DGI-2/LDH (DGI-2 polypeptide [1]): 1.9
DGI-2-40F-4-E1130 (peptide, not shown: large carriers) peptide: VCRLCRLCRFSMRCGGLSLVLGSAAAFFCEVFVGFCVAAAGAPVPYPDPLEPRP | 3.2 | 0.9 OD | 8.3 OD | 2.9 OD | 
WFTHVVEKFAAAGAPVPYPDPLEPRP (peptide, not shown: large carriers) [DGI-2-40F-3-A4] | 1.3 | 0.8 OD | 6.7 OD | 1.1 OD | 
DGI-2-40F-3-C10 (peptide, not shown: large carriers) peptide: WRARSSGYLFALTPNFGVPHPSSALRRMHGLMARDLRPVAAAGAPVPYPDPLEPRP | 1.3 | 0.9 OD | 7.7 OD | 1.1 OD | 
LGNASSLIPFLRSVQESGVRAAAGAPVPYPDPLEPRP (peptide, not shown: large carriers) [DGI-2-20F-3-C5] | 1 | 0.9 OD | 17.7 OD | 1 OD | 
DGI-2-40F-3-D3 (peptide, not shown: large carriers) peptide: VQFAMTLSSRLWQHARHPLTDDAPPTVSFGTRRETLAGKAAAAGAPVPYPDPLEPRP |  | 0.9 OD |  |  | 
GEVDCVYALTHRFLSPQVQYHHRPVAAAGAPVPYPDPLEPRP (peptide, not shown: large carriers) [DGI-2-20C-3-A12] | 1 | 0.9 OD | 8.1 OD | 0.9 OD | 
DGI-2-40F-3-B1 (peptide, not shown: large carriers) peptide: HGTRLRGVDYVMTWAGWQGYSSRKHVQQAVAGSSPGSDELAAAGAPVPYPDPLEPRP |  | 0.7 OD |  |  | 
DGI-2-40F-3-A8 (peptide, not shown: large carriers) peptide: GQISLAGVAVCSSERMLLAFSSRVFLPGLKVPVTTSQRGSAAAGAPVPYPDPLEPRP |  | 0.8 OD |  |  | 
DGI-2-40F-3-A1 (SEQ ID NO: 187) (peptide, not shown: large carriers) peptide: QYFARGSFQFGLSHVLSAAAAFHLYVFCKRLSRGFGIKDDAAAGAPVPYPDPLEPRP |  | 0.7 OD |  |  | 
DGI-2-40F-3-D1 (peptide, not shown: large carriers) peptide: MGQGFHYNRQPYMSHQCYAFTFSTPFLDGDRIPHGVSRGLAAAGAPVPYPDPLEPRP |  | 0.8 OD |  |  | 
DYKGRTMTSPIMSALPVYDRLHGAIGSRGQNMDAAAGAPVPYPDPLEPRP (peptide, not shown: large carriers) [DGI-2-20C-3-B3] | 0.9 | 0.9 OD | 7.7 OD | 0.8 OD | 
FLLQDFIMDAGSFVKPIGVGGAPVPYPDPLEPR (peptide, not shown: large carriers) [DGI9-20M-4-A414] |  |  |  |  | LDH (ratio over background) [6]: 1.1
MAGFRGSGLSGYSEARLPRVGAPVPYPDPLEPR (peptide, not shown: large carriers) [DGI9-20M-4-E3] |  |  |  |  | LDH (ratio over background) [6]: 1
WDWSRFGAQLRGAILGRATGGAPVPYPDPLEPR (peptide, not shown: large carriers) [DGI9-20M-4-A627] |  |  |  |  | LDH (ratio over background) [6]: 0.9
SRLALSSQHGLSLVAGRRRGGAPVPYPDPLEPR (peptide, not shown: large carriers) [DGI9-20M-4-A12] |  |  |  |  | LDH (ratio over background) [6]: 0.9
